Data set [1] deals with T1, myc-tagged full-length GTRAP4-41 (rat, UniProt Q9QWN8 2-2388).
T1 construct: tested from solubilized cell extract; also called myc-tagged GTRAP4-41; not shown: myc tag of the myc-tagged pRK5 vector
Description: co-immunoprecipitation from transfected HEK 293T cells.

Data set [2] deals with the molecule itself. Description: immunoblot of tissue homogenates and purified protein.
The target in data set [3] is T2, GLT-1 glutamate transporter (rat, UniProt P31596 1-573).
T2 construct: whole, on cells; Native protein in solubilized rat brain
T2 sequence (P31596 whole entry): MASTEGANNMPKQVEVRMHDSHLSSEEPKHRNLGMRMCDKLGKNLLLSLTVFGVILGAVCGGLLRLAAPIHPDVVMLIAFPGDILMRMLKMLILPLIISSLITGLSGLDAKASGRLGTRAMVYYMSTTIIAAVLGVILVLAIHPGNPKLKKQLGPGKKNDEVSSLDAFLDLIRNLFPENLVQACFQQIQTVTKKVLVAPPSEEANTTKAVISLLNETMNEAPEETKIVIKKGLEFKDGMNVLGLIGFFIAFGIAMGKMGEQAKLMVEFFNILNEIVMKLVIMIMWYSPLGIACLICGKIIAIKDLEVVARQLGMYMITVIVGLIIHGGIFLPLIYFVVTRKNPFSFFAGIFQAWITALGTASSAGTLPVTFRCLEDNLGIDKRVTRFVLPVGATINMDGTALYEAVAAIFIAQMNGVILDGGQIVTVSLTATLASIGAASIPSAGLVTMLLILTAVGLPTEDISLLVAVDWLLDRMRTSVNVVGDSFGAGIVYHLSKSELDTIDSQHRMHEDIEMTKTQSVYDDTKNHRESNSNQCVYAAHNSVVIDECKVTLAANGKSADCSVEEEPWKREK
Description: co-immunoprecipitation from rat brain extract, Western blotting.

For data set [4], the target named is T3, GLAST glutamate transporter (rat, UniProt P24942 1-543).
T3 construct: whole, on cells; Native protein in solubilized rat brain
T3 sequence (looked up): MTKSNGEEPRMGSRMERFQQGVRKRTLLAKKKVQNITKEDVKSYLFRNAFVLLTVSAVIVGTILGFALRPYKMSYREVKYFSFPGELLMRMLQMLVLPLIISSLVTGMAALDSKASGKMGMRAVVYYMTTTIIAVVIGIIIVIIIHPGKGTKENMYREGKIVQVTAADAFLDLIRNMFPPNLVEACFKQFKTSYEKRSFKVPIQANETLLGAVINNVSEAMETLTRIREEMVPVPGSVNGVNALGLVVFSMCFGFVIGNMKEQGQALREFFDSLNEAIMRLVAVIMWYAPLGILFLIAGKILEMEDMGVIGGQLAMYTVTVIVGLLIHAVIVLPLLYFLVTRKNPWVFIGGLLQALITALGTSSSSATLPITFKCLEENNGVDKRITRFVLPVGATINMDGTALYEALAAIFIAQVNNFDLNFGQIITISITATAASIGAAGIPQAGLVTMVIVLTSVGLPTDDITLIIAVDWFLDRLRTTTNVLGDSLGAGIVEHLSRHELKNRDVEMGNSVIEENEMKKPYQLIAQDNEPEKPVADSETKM
The description is as above.

Data set [5] concerns the target T4, EAAT4, full-length glutamate transporter (rat, UniProt O35921 1-561).
T4 construct: whole, on cells; tested from detergent lysates; also called rEAAT4; rat EAAT4
T4 sequence (looked up): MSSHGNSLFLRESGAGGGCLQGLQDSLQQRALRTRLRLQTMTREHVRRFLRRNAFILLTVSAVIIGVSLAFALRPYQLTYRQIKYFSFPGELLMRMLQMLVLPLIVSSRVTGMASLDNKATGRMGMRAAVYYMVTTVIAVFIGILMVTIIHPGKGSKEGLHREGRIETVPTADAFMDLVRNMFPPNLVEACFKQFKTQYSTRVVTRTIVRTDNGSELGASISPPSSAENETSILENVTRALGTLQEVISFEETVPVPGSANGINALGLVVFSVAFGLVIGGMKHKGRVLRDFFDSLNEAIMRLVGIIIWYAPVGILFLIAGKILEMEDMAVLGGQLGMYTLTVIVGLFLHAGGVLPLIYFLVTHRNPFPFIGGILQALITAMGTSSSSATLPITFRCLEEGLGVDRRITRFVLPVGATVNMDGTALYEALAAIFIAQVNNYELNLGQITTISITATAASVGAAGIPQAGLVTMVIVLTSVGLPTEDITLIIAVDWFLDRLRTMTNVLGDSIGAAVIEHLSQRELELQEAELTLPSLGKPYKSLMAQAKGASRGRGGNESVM
The description is as above.

The target in data set [6] is T5, GST (glutathione S-transferase) alone (UniProt P08515 1-218 = GST).
T5 construct: Control, immobilized on glutathione-Sepharose
T5 sequence (P08515 whole entry): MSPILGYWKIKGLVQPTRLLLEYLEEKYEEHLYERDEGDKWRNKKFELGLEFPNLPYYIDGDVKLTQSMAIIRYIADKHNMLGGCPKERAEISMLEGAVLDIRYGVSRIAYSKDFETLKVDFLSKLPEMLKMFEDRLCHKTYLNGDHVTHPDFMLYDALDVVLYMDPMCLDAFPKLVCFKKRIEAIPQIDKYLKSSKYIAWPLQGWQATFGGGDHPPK
The data set is described as follows: cell-free binding to protein immobilized on glutathione-Sepharose. On the procedure:
The interaction of GTRAP3-18 with EAAC1 was examined using in vitro and in vivo methods. For in vitro cell-free binding, EAAC1 was expressed as a fusion protein with glutathione S-transferase (GST), and GTRAP3-18 was produced and labeled with [^35S]-methionine by in vitro transcription and translation. Purified GST or GST-EAAC 1 fusion proteins immobilized on glutathione-Sepharose were incubated with [^35S]-labeled GTRAP3-18 protein. GTRAP3-18 specifically binds to immobilized GST-EAAC1 but not to GST alone, indicating an in vitro interaction.

Data set [7] has as its target T6, truncated EAAC1 lacking the interacting carboxy-terminal domain (lacking the last 93 amino acids) (UniProt P51907 1-430).
T6 construct: domain: EAAC1 lacking the last 93 amino acids
T6 sequence (looked up): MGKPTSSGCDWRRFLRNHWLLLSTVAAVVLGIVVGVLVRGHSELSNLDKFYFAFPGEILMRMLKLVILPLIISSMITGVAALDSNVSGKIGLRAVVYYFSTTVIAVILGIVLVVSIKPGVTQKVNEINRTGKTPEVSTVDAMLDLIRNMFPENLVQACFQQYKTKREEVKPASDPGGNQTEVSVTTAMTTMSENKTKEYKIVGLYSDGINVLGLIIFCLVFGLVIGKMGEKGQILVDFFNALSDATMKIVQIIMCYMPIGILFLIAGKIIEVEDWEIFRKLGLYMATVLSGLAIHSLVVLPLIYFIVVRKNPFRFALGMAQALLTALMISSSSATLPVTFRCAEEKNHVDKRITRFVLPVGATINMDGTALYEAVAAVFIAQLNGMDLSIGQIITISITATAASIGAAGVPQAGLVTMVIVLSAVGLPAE
The data set is described as follows: co-immunoprecipitation from transfected HEK293 cells. On the procedure:
(§1) Immunoprecipitation experiments were performed to test if EAAC1 and GTRAP3-18 interact in vivo. This was first examined in transfected HEK293 cells using amino-terminus c-myc tagged GTRAP3-18. EAAC1 is co-immunoprecipitated with c-myc-GTRAP3-18 in the cell extract prepared from co-expression cells but not from EAAC1 or c-myc-GTRAP3-18 single expression cells. […] This interaction was specific, since EAAT4, another neuronal glutamate transporter subtype, is not immunoprecipitated with c-myc-GTRAP3-18. Identical results are obtained using COS-7 and C6 glioma cell lines.

Data set [8] deals with T4, EAAT4, full-length glutamate transporter. The data set is described as above. Here is the method: as §1

T1 sequence (Q9QWN8 other isoform, or with tags, fused parts or gaps): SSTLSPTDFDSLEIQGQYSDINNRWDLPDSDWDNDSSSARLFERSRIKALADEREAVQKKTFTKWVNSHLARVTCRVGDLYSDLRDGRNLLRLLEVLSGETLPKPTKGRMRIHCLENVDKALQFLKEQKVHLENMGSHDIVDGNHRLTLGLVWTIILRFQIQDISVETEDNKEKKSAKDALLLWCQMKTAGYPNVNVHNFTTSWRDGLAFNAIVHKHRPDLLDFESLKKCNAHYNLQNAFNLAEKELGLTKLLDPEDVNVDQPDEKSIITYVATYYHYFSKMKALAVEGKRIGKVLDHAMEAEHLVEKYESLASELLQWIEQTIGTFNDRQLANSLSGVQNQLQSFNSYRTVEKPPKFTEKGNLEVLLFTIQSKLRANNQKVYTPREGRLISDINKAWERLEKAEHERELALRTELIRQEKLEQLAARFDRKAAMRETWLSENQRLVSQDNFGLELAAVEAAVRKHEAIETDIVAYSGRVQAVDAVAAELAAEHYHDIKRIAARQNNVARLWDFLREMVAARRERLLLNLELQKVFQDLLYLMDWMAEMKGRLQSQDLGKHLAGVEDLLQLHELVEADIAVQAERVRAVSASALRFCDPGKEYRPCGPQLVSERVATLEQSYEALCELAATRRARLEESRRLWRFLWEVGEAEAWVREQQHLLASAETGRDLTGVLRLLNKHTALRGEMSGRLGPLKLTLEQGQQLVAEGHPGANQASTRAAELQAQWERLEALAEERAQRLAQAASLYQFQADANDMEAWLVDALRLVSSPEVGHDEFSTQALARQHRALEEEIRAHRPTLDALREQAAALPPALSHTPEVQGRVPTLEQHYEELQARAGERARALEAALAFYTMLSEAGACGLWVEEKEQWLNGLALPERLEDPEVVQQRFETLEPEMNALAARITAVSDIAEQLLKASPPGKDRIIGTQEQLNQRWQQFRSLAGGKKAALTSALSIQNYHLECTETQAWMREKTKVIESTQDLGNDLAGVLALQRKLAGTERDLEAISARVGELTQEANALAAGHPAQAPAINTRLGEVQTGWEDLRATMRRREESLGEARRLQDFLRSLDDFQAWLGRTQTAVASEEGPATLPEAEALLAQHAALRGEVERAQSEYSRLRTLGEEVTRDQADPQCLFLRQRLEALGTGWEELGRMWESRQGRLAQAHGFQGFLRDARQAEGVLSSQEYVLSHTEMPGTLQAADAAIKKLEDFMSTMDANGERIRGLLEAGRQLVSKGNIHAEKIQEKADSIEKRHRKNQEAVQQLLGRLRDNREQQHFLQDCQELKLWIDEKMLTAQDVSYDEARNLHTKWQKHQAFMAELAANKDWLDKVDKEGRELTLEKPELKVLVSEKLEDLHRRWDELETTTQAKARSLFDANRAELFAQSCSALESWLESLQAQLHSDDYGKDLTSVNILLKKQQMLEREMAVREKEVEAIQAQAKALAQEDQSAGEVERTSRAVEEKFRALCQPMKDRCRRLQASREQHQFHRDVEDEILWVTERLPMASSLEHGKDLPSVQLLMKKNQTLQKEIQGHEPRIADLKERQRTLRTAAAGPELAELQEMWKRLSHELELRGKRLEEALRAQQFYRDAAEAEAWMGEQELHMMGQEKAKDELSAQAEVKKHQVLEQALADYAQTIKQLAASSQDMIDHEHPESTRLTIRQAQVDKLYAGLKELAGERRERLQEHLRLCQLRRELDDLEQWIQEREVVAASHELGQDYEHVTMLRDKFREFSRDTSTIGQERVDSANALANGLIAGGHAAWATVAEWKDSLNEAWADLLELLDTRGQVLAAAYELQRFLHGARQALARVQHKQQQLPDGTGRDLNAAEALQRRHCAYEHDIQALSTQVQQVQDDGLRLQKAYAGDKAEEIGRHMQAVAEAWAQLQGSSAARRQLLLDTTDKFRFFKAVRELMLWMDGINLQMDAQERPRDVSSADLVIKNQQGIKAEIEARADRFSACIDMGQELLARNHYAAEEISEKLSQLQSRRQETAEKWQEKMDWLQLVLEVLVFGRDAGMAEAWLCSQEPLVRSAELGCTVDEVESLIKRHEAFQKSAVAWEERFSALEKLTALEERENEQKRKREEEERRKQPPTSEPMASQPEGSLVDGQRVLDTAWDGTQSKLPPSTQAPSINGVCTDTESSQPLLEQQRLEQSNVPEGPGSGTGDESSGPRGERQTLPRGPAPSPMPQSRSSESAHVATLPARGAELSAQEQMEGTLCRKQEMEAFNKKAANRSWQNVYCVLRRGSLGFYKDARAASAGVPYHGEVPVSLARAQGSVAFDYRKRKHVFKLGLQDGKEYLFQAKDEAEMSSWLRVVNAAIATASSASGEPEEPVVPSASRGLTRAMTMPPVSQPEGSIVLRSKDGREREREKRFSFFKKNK

B1: myc-tagged full-length GTRAP4-48 (other)
chain: MSIRLPHSIDRSASKKQSHLSSPIASWLSSLSSLGDSTPERTSPSHHRQPSDTSETTAGLVQRCVIIQKDQHGFGFTVSGDRIVLVQSVRPGGAAMKAGVKEGDRIIKVNGTMVTNSSHLEVVKLIKSGAYAALTLLGSSPPSVGVSGLQQNPSVAGVLRVNPIIPPPPPPPPLPPPQHITGPKPLQDPEVQKHATQILWNMLRQEEEELQDILPPCGETSQRTCEGRLSVDSQEADSGLDSGTERFPSISESLMNRNSVLSDPGLDSPQTSPVILARVAQHHRRQGSDAALLPLNHQGIDQSPKPLIIGPEEDYDPGYFNNESDIIFQDLEKLKSHPAYLVVFLRYILSQADPGPLLFYLCSEVYQQTNPKDSRSLGKDIWNIFLEKNAPLRVKIPEMLQAEIDLRLRNNEDPRNVLCEAQEAVMLEIQEQINDYRSKRTLGLGSLYGENDLLGLDGDPLRERQMAEKQLAALGDILSKYEEDRSAPMDFAVNTFMSHAGIRLRESRSSCTAEKTQSAPDKDKWLPFFPKTKKQSSNSKKEKDALEDKKRNPILRYIGKPKSSSQSIKPGNVRNIIQHFENSHQYDVPEPGTQRLSTGSFPEDLLESDSSRSEIRLGRSGSLKGREEMKRSRKAENVPRPRSDVDMDAAAEAARLHQSASSSASSLSTRSLENPTPPFTPKMGRRSIESPNLGFCTDVILPHLLEDDLGQLSDLEPEPEVQNWQHTVGKDVVANLTQREIDRQEVINELFVTEASHLRTLRVLDLIFYQRMRKENLMPREELARLFPNLPELIEIHNSWCEAMKKLREEGPIIRDISDPMLARFDGPAREELQQVAAQFCSYQSVALELIRTKQRKESRFQLFMQEAESHPQCRRLQLRDLIVSEMQRLTKYPLLLENIIKHTEGGTSEHEKLCRARDQCREILKFVNEAVKQTENRHRLEGYQKRLDATALERASNPLAAEFKSLDLTTRKMIHEGPLTWRISKDKTLDLQVLLLEDLVVLLQRQEERLLLKCHSKTAVGSSDSKQTFSPVLKLNAVLIRSVATDKRAFFIICTSELGPPQIYELVALTSSDKNIWMELLEEAVQNATKHPGAAPIPIHPSPPGSQEPAYQGSTSSRVEINDSEVYHTEKEPKKLPEGPGPEQRVQDKQLIAQGEPVQEEDEEELRTLPRAPPSLDGENRGIRTRDPVLLALTGPLLMEGLADAALEDVENLRHLILWSLLPGHTVKTQAAGEPEDDLTPTPSVVSITSHPWDPGSPGQAPTISDSTRLARPEGSQPEGEDVAVSSLAHLPPRTRSSGVWDSPELDRNPAAEAASTEPAASYKVVRKVSLLPGGGVGAAKVAGSNAIPDSGQSESELSEVEGGAQATGNCFYVSMPAGPLDSSTEPTGTPPSPSQCHSLPAWPTEPQPYRGVRGGQCSSLVRRDVDVIFHTIEQLTIKLHRLKDMELAHRELLKSLGGESSGGTTPVGSFHTEAARWTDYSLSPPAKEALASDSQNGQEQGSCPEEGSDIALEDSATDTAVSPGP
notes: tested from solubilized cell extract; also called myc-tagged GTRAP4-48; not shown: myc tag of the myc-tagged pRK5 vector
In the case of B1, the binding result in data set [1] is listed as “no binding”.

B2: GTRAP3-18 (glutamate transporter EAAC1 associated protein), full-length (other)
chain: MDVNLAPLRAWDDFFPGSDRFARPDFRDISKWNNRVVSNLLYYQTNYLVVAAMMISVVGFLSPFNMILGGIIVVLVFTGFVWAAHNKDILRRMKKQYPTAFVMVVMLASYFLISMFGGVMVFVFGITFPLLLMFIHASLRLRNLKNKLENKMEGIGLKKTPMGIILDALEQQEDSINKFADYISKARE
notes: Used for native GTRAP3-18 of rat brain and tissue homogenates, for 'purified GTRAP3-18 protein' and for GTRAP3-18 expressed where no tag is stated; also called rat JWA protein homologue
With B2, the binding result in data set [2] is reported as “binds”; in data set [3] it was “no binding”; in data set [4], “no binding”; in data set [5] it was “no binding”.

B3: [35S]-methionine labelled GTRAP3-18 made by in vitro transcription and translation (other)
chain: B2 chain
modifications: labeled with [35S]-methionine
notes: also called [35S]-labeled GTRAP3-18 protein
With B3, the binding result in data set [6] is reported as “no binding”.

B4: amino-terminus c-myc tagged GTRAP3-18 (other)
chain: B2 chain
notes: Expressed in HEK293 (also COS-7 and C6 glioma) cells; also called c-myc-GTRAP3-18; not shown: c-myc tag at the amino-terminus
B4: the binding result in data set [7] and in data set [8] was “no binding” each time.

For the origin of these results see patent publication US6808893 (Johns Hopkins, dated 2004).
